This data set concerns the molecule itself. In words: dynamic light scattering.

B1: TFIP11 N-TER (N-terminal region of Tuftelin Interacting Protein 11) (domain or fragment, human, UniProt Q9UBB9 1-350, looked up)
chain: MSLSHLYRDGEGRIDDDDDERENFEITDWDLQNEFNPNRQRHWQTKEEATYGVWAERDSDDERPSFGGKRARDYSAPVNFISAGLKKGAAEEAELEDSDDEEKPVKQDDFPKDFGPRKLKTGGNFKPSQKGFAGGTKSFMDFGSWERHTKGIGQKLLQKMGYVPGRGLGKNAQGIINPIEAKQRKGKGAVGAYGSERTTQSMQDFPVVDSEEEAEEEFQKELSQWRKDPSGSKKKPKYSYKTVEELKAKGRISKKLTAPQKELSQVKVIDMTGREQKVYYSYSQISHKHNVPDDGLPLQSQQLPQSGKEAKAPGFALPELEHNLQLLIDLTEQEIIQNDRQLQYERDMVV
As for B1, the binding result was “binds”.

Values taken from paper doi:10.1101/2024.02.18.580885 (bioRxiv, 2024).
